Data published in patent US20180280520A1 (NAVIGEN, published 2018).
Values joined by “and” are separate entries in the source; they are usually repeats but may differ in a detail not shown here. Equal entries are not always repeated. Positions of bridges follow the written chain, without caps; N, C: chain ends. Non-standard residues stand in square brackets, D forms with d. Primed or numbered codes have the meaning given here. No end group written: not given here. PEG4′ = not defined here; PEG6′ = not defined here; PEG8′ = not defined here

T1: BPEG2-GKG-RSVB-IZN45 Full Mut (respiratory syncytial virus, RSV-B, N-terminal biotinPEG2; C-terminal amide)
T1 construct: also called IZN45_Mut; mutant target
T1 chain: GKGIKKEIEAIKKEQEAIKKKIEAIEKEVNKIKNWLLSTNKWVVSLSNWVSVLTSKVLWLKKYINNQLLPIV

T2: BPEG2-GKG-RSVB-IZN45 (respiratory syncytial virus, RSV-B, N-terminal biotinPEG2; C-terminal amide)
T2 chain: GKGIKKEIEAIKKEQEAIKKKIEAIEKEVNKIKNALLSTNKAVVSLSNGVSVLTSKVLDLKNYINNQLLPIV

T3: IZN45_WT_Bot (N-terminal biotinPEG2; C-terminal amide)
T3 construct: also called BPEG2-GKG-RSVB-IZN45 wt bot
T3 N-trimer mimic monomer (IZ fused to N45, partial groove mutant): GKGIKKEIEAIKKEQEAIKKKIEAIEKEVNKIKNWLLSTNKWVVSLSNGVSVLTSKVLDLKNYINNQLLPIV


Target: T1, BPEG2-GKG-RSVB-IZN45 Full Mut
Assay: phage ELISA

Binder	binding result
YDPLVFPSDEFDASISQVNEKINQSLAFIRKSDEL (domain: 35-residue RSV C-peptide T108) [control phage displaying T108]	no binding

Target: T1, BPEG2-GKG-RSVB-IZN45 Full Mut
Assay: SPR

Binder	binding result
YDPLVFPSDEFDASISQVNEKINQSLAFIRKSDEL (domain: 35-residue RSV C-peptide T108; also called RSV C-peptide T108) [T108]	no binding
FDASISQVNEKINQSLAFIRKSDELLHNVNAGKST (also called RSV C-peptide T118) [T118]	no binding

Target: T2, BPEG2-GKG-RSVB-IZN45
Assay: SPR, biotinylated L-IZN45 on NeutrAvidin chip

Binder	Kd [nM]
FDASISQVNEKINQSLAFIRKSDELLHNVNAGKST (also called RSV C-peptide T118) [T118]	~1

Target: RSV F protein (RSV-A) (respiratory syncytial virus, RSV-A, UniProt P03420 26-574)
Assay: cell-based or functional assay

Binder	IC50, syncytia reduction assay
Ac-KG[dA][dC][dT][dN][dR][dA][dE][dW][dL][dI][dD][dW][dC][dA][dA]-NH2 (disulfide 4-15 (inferred); not fully specified (residue 1); printed as Ac-K(PEG6)-RSVP21-trimer; also: PEG6 after N-terminal K (side chain or backbone unclear), trimer) [Ac-K(PEG6)-RSVP21-trimer]	65000 nM
[dK]G[dR][dW][dF][dE][dL][dP][dE][dP][dE][dW][dW]G (not fully specified (C-terminus); printed as KG-RSVP7-G(PEG6)-Tricasso) [KG-RSVP7-G(PEG6)-Tricasso]	18400 nM
KKGRWFELPEPEWWG (not fully specified; all D-amino acids; C-terminal PEG6 joined to the hub) [KKG-RSVP7-G(PEG6)-Tricasso]	4800 nM and 4500 nM
Ac-KG[dA][dC][dR][dN][dE][dP][dH][dW][dL][dL][dD][dW][dC][dA][dA]-NH2 (disulfide 4-15 (inferred); not fully specified (residue 1); printed as Ac-K(PEG6)-RSVP20-trimer; also: PEG6 after N-terminal K (side chain or backbone unclear), trimer) [Ac-K(PEG6)-RSVP20-trimer]	55000 nM and 19000 nM

Target: RSV F protein (RSV-A) (respiratory syncytial virus, RSV-A) (UniProt P03420)
Assay: cell-based or functional assay

RSV F protein (RSV-A) (respiratory syncytial virus, RSV-A), sequence (P03420 26-574): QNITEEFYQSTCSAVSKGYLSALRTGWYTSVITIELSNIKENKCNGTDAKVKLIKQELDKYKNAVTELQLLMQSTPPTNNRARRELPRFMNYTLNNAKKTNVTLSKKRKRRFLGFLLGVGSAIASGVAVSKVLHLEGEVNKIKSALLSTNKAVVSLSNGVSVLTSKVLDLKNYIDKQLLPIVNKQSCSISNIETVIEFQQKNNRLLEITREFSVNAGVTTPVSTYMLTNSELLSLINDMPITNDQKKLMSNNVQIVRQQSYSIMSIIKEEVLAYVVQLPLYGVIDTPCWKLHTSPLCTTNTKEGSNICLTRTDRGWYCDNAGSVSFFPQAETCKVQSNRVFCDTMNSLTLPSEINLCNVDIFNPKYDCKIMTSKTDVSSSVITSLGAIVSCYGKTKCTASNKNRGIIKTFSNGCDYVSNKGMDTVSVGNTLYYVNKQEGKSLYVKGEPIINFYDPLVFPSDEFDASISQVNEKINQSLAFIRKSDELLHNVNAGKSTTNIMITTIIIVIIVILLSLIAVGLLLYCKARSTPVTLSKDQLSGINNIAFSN

Binder	potency [nM]	potency, fold decrease compared to RSVP32 [fold]	IC50, syncytia reduction assay
GECVNQPEWLLDWCGT (D-peptide; N-terminal acetyl; C-terminal amide) [RSVP32 with Gln at position 6]	53	2	–
GEVCRPEWLLDWCGT (D-peptide; N-terminal acetyl; C-terminal amide) [RSVP32 with shortened disulfide]	360	14.4	–
KKGAAAARWFELPEPEWWG (not fully specified; all D-amino acids; C-terminal PEG6 joined to the hub) [KKGAAAA-RSVP7-G(PEG6)-Tricasso]	–	–	13900 nM and 7400 nM
Ac-[dK][PEG8′]GG[dE][dC][dV][dN][dR][dP][dE][dW][dL][dL][dD][dW][dC]G[dT]G[dD][dD]-NH2 (disulfide 6-17; also: cholesterol conjugate, trimer) [Chol-Ac-K(PEG8)G-RSVP32-GDD-trimer]	–	–	24 nM and 8 nM
Ac-[dK][PEG4′][dD][dD]GG[dE][dC][dV][dN][dR][dP][dE][dW][dL][dL][dD][dW][dC]G[dT]-NH2 (disulfide 8-19; also: Chol, attachment not given here, trimer, linkage not given here) [Chol-Ac-K(PEG4)DDG-RSVP32-trimer]	–	–	28 nM and 16 nM and 11 nM
Ac-G[dE][dC][dV][dN][dR][dP][dE][dW][dL][dL][dD][dW][dC]G[dT]G[dD][dD][PEG4′][dK]-NH2 (disulfide 3-14; also: cholesterol conjugate, trimer) [Chol-Ac-RSVP32-GDD(PEG4)K-trimer]	–	–	37 nM and 52 nM and 95 nM
Ac-[dK][PEG6′][dD][dD]G[dA][dE][dC][dV][dN][dR][dP][dE][dW][dL][dL][dD][dW][dC]G[dT]-NH2 (disulfide 8-19; also: cholesterol conjugate, trimer) [Chol-Ac-K(PEG6)DDG-RSVP31-trimer]	–	–	65 nM and 54 nM and 24 nM
Ac-[dS][dM][dC][dV][dN][dR][dP][dE][dW][dL][dL][dD][dW][dC]G[dT]G[dD][dD][PEG6′][dK]-NH2 (disulfide 3-14; also: cholesterol conjugate, trimer) [Chol-Ac-RSVP24-GDD(PEG6)K-trimer]	–	–	97 nM
Ac-[dK][PEG6′][dD][dD]G[dS][dA][dC][dV][dN][dR][dP][dE][dW][dL][dL][dD][dW][dC]G[dT]-NH2 (disulfide 8-19; also: cholesterol conjugate, trimer) [Chol-Ac-K(PEG6)DDG-RSVP29-trimer]	–	–	120 nM and 100 nM
Ac-[dK][PEG6′][dD][dD]G[dH][dA][dC][dV][dN][dR][dP][dE][dW][dL][dL][dD][dW][dC]G[dR]-NH2 (disulfide 8-19; also: cholesterol (Chol) conjugate, site not given here, trimer) [Chol-Ac-K(PEG6)DDG-RSVP26-trimer]	–	–	3200 nM
Ac-[dK][PEG6′]G[dA][dC][dR][dN][dE][dP][dH][dW][dL][dL][dD][dW][dC][dA][dA]-NH2 (disulfide 5-16; also: cholesterol (Chol) conjugate, site not given here, trimer) [Chol-Ac-K(PEG6)-RSVP20-trimer]	–	–	7900 nM
Ac-[dS][dM][dC][dV][dN][dR][dP][dE][dW][dL][dL][dD][dW][dC]G[dT]G[dD][dD][PEG6′][dK]-NH2 (disulfide 3-14; also: trimer, linkage not given here) [Ac-RSVP24-GDD(PEG6)K-trimer]	–	–	4600 nM
Ac-[dK][PEG6′]G[dH][dA][dC][dV][dN][dR][dP][dE][dW][dL][dL][dD][dW][dC]G[dR]G[dR][dR]-NH2 (disulfide 6-17; also: cholesterol conjugate, trimer) [Chol-Ac-K(PEG6)G-RSVP26-GRR-trimer]	–	–	490 nM
Ac-[dK][PEG6′][dD][dD]G[dS][dM][dC][dV][dN][dR][dP][dE][dW][dL][dL][dD][dW][dC]G[dT]-NH2 (disulfide 8-19; also: trimer, linkage not given here) [Ac-K(PEG6)DDG-RSVP24-trimer]	–	–	5500 nM
Ac-[dK][PEG6′][dD][dD]G[dH][dA][dC][dV][dN][dR][dP][dE][dW][dL][dL][dD][dW][dC][dD][dH]-NH2 (disulfide 8-19; also: cholesterol conjugate, trimer) [Chol-Ac-K(PEG6)DDG-RSVP28-trimer]	–	–	240 nM
Ac-[dK][PEG6′][dD][dD]G[dH][dE][dC][dV][dN][dR][dP][dE][dW][dL][dL][dD][dW][dC][dE][dH]-NH2 (disulfide 8-19; also: cholesterol conjugate, trimer) [Chol-Ac-K(PEG6)DDG-RSVP27-trimer]	–	–	140 nM and 90 nM and 88 nM
Ac-[dK][PEG6′]G[dH][dA][dC][dV][dN][dR][dP][dE][dW][dL][dL][dD][dW][dC]G[dR]G[dR][dR]-NH2 (disulfide 6-17; also: trimer, linkage not given here) [Ac-K(PEG6)G-RSVP26-GRR-trimer]	–	–	5500 nM
Ac-[dK]GG[dA][dC][dR][dN][dE][dP][dH][dW][dL][dL][dD][dW][dC][dA][dA]-NH2 (disulfide 5-16; SMILES CC(=O)N[C@H](CCCCN)C(=O)NCC(=O)NCC(=O)N[C@H](C)C(=O)N[C@@H]1CSSC[C@H](C(=O)N[C@H](C)C(=O)N[C@H](C)C(N)=O)NC(=O)[C@@H](Cc2c[nH]c3ccccc23)NC(=O)[C@@H](CC(=O)O)NC(=O)[C@@H](CC(C)C)NC(=O)[C@@H](CC(C)C)NC(=O)[C@@H](Cc2c[nH]c3ccccc23)NC(=O)[C@@H](Cc2c[nH]cn2)NC(=O)[C@H]2CCCN2C(=O)[C@@H](CCC(=O)O)NC(=O)[C@@H](CC(N)=O)NC(=O)[C@@H](CCCNC(=N)N)NC1=O) [Ac-KG-RSVP20]	–	–	673000 nM

Target: T1, BPEG2-GKG-RSVB-IZN45 Full Mut
Assay: phage ELISA of clonal phage, percent bound

Binder	binding result
SLKYWWMEELPLPKWW [X16-18 phage clone]	no binding
GACKIHDLFHWHDCAA (disulfide (positions not given here); not fully specified (bridges), also called CXC10C-119) [CX10C-119 phage clone]	no binding
SKVILPEPFWWP [X12-47 phage clone]	no binding

Target: T3, IZN45_WT_Bot
Assay: phage ELISA of clonal phage, percent bound

Binder	binding result
SLKYWWMEELPLPKWW [X16-18 phage clone]	no binding
